According to US20130288983A1 (Amgen, published 2013):
Where a chain is given by its changes, count along the chain named. Names and notes keep the numbering of the source.

B1: ActRIIB-IgG1 Fc wild type, no linker (Fc fusion)
chain: SGRGEAETRECIYYNANWELERTNQSGLERCEGEQDKRLHCYASWRNSSGTIELVKKGCWLDDFNCYDRQECVATEENPQVYFCCCEGNFCNERFTHLPEAGGPEVTYEPPPTAPTAPELLGGPSVFLFPPKPKDILMISRTPEVTCVVVDVSHEDPEVKFNWYVGGVEVHNAKTKPREEQYNSTYRVVSVLTVLHQDWLNGKEYKCKVSNKALPAPIEKTISKAKGQPREPQVYTLPPSRDELTKNQVSLTCLVKGFYPSDIAVEWESNGQPENNYKTTPPVLDSDGSFFLYSKLTVDKSRWQQGNVFSCSVMHEALHNHYTQKSLSLSPGK
notes: Tested from conditioned media
B2: ActRIIB-IgG1 Fc E28A, no linker (Fc fusion)
chain: B1 chain with E10A
notes: Tested from conditioned media
B3: ActRIIB-IgG1 Fc R40A, no linker (Fc fusion)
chain: B1 chain with R22A
notes: Tested from conditioned media

Each binder was assayed against T1, Activin A (Homo sapiens (Human), UniProt P08476 311-426) (assay: Biacore SPR grade, COS stable conditioned media, 20 nM activin A).
T1 sequence: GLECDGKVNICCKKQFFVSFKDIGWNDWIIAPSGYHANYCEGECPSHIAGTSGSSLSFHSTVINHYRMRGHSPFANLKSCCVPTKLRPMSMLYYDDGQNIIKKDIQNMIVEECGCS
Experimental: Qualitative BIAcore® Assay. E28 and R40 were substituted respectively with other natural amino acids in fusions with IgG1 Fc as described above. Each vActRIIB-IgG1Fc sample from conditioned media was captured on goat anti-human IgG1 Fc antibody (Jackson Immuno Research, cat#109-005-098, lot 63550) coated CMS surface. 20 nM of Activin A was injected over captured sample surfaces using BIACore2000 (BIACore Life Sciences, Piscataway, N.J.). The resulting sensorgrams were normalized to the captured RL (500 RU) of vActRIIB-IgG1Fc variants. The normalized binding response (RU) for some variants are shown in Table 2, and is further described below. Relative binding affinity for activin was also determined by Biacore measurements using conditioned media obtained from mammalian cell expression. Activin A (20 nM) was used to capture soluble receptor polypeptide in the conditioned media and measured SPR signals were normalized. Normalized SPR of +++++: >60, ++++:40-60, +++:20-40, ++:10-20, +: 5-10, −: <5.

| Binder | Normalized SPR [ru] |
| --- | --- |
| B1 | 10 to 20 |
| B2 | 10 to 20 |
| B3 | 10 to 20 |
